This is an account of results in patent US5223421A, “Identification of methionine Nα-acetyltransferase” (The General Hospital Corporation, priority 1990, dated 1993).

The target in assay [1] is T1, AAA1 N^α -acetyltransferase (N^α -AT) (Saccharomyces cerevisiae, UniProt P07347+P12945).
T1 sequence (P12945 2-854 limits assumed): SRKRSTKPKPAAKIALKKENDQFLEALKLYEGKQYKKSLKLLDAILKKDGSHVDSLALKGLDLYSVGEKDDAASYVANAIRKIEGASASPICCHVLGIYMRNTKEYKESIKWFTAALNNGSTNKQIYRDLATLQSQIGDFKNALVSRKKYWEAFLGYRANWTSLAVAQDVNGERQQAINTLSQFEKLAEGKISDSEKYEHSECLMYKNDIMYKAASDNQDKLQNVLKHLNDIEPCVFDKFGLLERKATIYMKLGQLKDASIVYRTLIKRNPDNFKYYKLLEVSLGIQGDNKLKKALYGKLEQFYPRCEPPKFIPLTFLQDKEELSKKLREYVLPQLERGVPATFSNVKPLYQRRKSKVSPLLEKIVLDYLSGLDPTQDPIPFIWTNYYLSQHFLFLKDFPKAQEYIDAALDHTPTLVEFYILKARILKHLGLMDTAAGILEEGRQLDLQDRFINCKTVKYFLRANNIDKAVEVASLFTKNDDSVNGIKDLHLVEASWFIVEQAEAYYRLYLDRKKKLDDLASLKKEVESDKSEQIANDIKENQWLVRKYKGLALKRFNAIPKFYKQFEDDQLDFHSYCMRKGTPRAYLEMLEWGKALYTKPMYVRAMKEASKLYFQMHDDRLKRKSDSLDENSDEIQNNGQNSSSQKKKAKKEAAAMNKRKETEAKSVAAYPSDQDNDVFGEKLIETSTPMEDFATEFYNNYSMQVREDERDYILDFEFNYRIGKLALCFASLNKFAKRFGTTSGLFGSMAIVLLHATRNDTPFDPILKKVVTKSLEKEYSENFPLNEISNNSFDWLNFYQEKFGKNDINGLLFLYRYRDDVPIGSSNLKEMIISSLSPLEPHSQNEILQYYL
T1 sequence (P07347 1-238): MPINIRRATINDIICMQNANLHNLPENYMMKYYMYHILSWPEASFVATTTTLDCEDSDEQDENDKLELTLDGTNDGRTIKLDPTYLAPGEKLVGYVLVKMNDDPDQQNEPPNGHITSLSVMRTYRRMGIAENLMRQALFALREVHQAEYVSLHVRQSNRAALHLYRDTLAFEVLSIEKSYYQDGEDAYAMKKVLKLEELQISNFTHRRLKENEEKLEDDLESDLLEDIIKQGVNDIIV
Description: Relative activity of N^α -AT for N^α -acetylation of synthetic peptides. Type of assay: biochemical. The procedure: (§1) N^α -acetylt[…] was determined as previously described [Lee et al., J. Biol. Chem. 263:14948-14955 (1988)]. Aliquots of the lysate or chromatographic fractions were added to 1.5 ml Eppendorf tubes containing a reaction mixture of 50 mM HEPES, pH 7.4, 150 mM KCl, 1 mM DTT, 25 μM [^3 H] acetyl coenzyme A (0.5 μCi) and 50 μM synthetic peptide with an adjusted final volume of 100 μl. The assay mixture was incubated at 30° C. for 30 min. The reaction was stopped by adding 17 μl of 0.5M acetic acid and chilled in an ice bath. The reaction samples were filtered through SP membrane discs (Cuno) (previously pre-swollen in 0.5M acetic acid), and then washed three times with 1 ml of 0.5M acetic acid on a Millipore 1225 sampling manifold. The partially dried membranes were placed in scintillation cocktail and counted with a Beckman LS 3801 scintillation counter. One unit of activity was defined as the amount of enzyme able to transfer 1 pmol of [^3 H] acetyl group from [^3 H] acetyl coenzyme A to synthetic peptide per min under standard enzyme assay conditions defined above.
(§2) In order to compare the relative specificity and activity of the methionine N^α -acetylt[…] (M-N^α -AT) of the present invention with the specificity and activity of the AAA1 N^α -acetyltransferase (N^α -AT) of Lee, F.-J. S., et al., J. Bacteriol. 171, (1989), U.S. Patent Application of John A. Smith, and Fang-Jen S. Lee, filed Oct. 25, 1989, entitled "ISOLATION OF STRAINS OF SAC[…] ALTERED N^α -ACETYLT[…]" (which references have been incorporated herein by reference) synthetic peptides were prepared. These peptides were assessed for their ability to serve as substrates for the two enzymes. In Table 6, the effect of the amino terminal amino acid on activity is investigated; in Table 7, the effect of the penultimate amino terminal amino acid on activity is investigated.

The subject of assay [2] is methionine N^α -acetyltransferase (M-N^α -AT). Put plainly: Relative activity of M-N^α -AT for N^α -acetylation of synthetic peptides. Type of assay: biochemical, Saccharomyces cerevisiae. Also on record: tested at 50 µM. The settings on record: Table 7, influence of the penultimate amino terminal residue. The procedure:
as §1, §2

Setting [3] is: Table 6, influence of the amino terminal residue.
[4] abbreviates: Table 7, influence of the penultimate amino terminal residue.

With “SIPETQKGVIFYESHGKLEYKDIP (SIPETQKGVIFYESHGKLEYKDIP) [Alcohol dehydrogenase (1-24) (Yeast)]”, the “Activity (%) (mean activity ± S.D.) N^a -AT” value in assay [1] (setting [3]) and in assay [1] (setting [4]) was 102 ± 5% each time. For the same substance, the “Activity (%) (mean activity ± S.D.) M-N^a -AT” value in assay [2] turned out to be 0%.
On to “SYSMEHFRWGKPVGKKRRPVKVYP”, for which the “Activity (%) (mean activity ± S.D.) N^a -AT” value in assay [1] (setting [3]) and in assay [1] (setting [4]) was 100 ± 5% each time. In assay [2], the “Activity (%) (mean activity ± S.D.) M-N^a -AT” value is 0%.
